Values of other authors in patent US20120225099A1, “COMPOSITIONS FOR AND METHODS OF […] CYCLASE C” (Thomas Jefferson University, priority 2009, published 2012).
Ends that are not written are not given here.

Molecular target: guanylate cyclase (ST receptors) (Homo sapiens, UniProt P25092)
Settings: relative to native ST; about

guanylate cyclase (ST receptors), sequence (P25092 24-1073): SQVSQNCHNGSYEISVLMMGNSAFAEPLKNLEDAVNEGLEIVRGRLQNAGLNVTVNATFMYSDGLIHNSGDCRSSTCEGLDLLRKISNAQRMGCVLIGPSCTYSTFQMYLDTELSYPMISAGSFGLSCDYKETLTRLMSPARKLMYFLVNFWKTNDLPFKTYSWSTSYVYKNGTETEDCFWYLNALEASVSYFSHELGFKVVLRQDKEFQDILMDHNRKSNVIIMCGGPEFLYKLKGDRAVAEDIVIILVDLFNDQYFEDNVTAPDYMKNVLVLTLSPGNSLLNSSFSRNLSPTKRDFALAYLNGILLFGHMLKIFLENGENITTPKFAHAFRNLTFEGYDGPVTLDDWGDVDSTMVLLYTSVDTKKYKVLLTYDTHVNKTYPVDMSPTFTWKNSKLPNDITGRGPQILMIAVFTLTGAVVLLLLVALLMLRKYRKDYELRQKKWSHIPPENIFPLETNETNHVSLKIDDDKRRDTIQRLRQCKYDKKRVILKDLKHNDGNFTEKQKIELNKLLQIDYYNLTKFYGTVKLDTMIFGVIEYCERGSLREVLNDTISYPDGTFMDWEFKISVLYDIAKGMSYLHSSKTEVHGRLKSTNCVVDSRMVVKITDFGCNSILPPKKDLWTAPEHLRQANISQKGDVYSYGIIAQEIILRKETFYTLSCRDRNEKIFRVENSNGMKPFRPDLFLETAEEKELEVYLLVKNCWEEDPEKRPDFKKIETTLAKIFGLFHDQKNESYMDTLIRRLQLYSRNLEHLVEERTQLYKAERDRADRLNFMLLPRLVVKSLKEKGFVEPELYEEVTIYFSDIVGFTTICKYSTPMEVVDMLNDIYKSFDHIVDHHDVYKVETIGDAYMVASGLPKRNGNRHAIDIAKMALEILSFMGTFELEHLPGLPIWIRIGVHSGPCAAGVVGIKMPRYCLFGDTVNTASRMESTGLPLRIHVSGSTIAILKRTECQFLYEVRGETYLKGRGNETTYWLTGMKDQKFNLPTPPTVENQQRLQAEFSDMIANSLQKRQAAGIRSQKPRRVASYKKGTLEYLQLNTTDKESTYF

PNTCEICAYAACTGC (cysteine pairing not given here) [Guanylin, 15 amino acid peptide identified in mammalian intestine; native GCC ligand]
activates guanylate cyclase at a level less than native ST: 10- to 100 fold
